Laboratory results: publication PMC2756985 (Biochemistry, 2009)

Experiment: Oxygen dissociation rates of DevS proteins, stopped flow
Type: binding, Mycobacterium tuberculosis

B1: DevS: full length wild-type heme sensor kinase DevS of Mycobacterium tuberculosis (protein, UniProt P9WGK3 1-578, looked up)
chain: MTTGGLVDENDGAAMRPLRHTLSQLRLHELLVEVQDRVEQIVEGRDRLDGLVEAMLVVTAGLDLEATLRAIVHSATSLVDARYGAMEVHDRQHRVLHFVYEGIDEETVRRIGHLPKGLGVIGLLIEDPKPLRLDDVSAHPASIGFPPYHPPMRTFLGVPVRVRDESFGTLYLTDKTNGQPFSDDDEVLVQALAAAAGIAVANARLYQQAKARQSWIEATRDIATELLSGTEPATVFRLVAAEALKLTAADAALVAVPVDEDMPAADVGELLVIETVGSAVASIVGRTIPVAGAVLREVFVNGIPRRVDRVDLEGLDELADAGPALLLPLRARGTVAGVVVVLSQGGPGAFTDEQLEMMAAFADQAALAWQLATSQRRMRELDVLTDRDRIARDLHDHVIQRLFAIGLALQGAVPHERNPEVQQRLSDVVDDLQDVIQEIRTTIYDLHGASQGITRLRQRIDAAVAQFADSGLRTSVQFVGPLSVVDSALADQAEAVVREAVSNAVRHAKASTLTVRVKVDDDLCIEVTDNGRGLPDEFTGSGLTNLRQRAEQAGGEFTLASVPGASGTVLRWSAPLSQ
modifications: full-length
In the case of B1, the O2 koff is reported as 6.79 ± 0.33 ^b s^−1.
